This note sets out measurements from the DeepSol protein solubility set.

The data set is described as follows: soluble on expression in E. coli; label from the status in PepcDB or PDB records.
“MNYQDNSLKSLKLGQKTEYASQYDRTLLQPVPRALNRDGLGITQNQPFTIGADIWTAYEISWLNEKGLPQVAIADIYLDYQSQNLIESKSFKLYLNSFNQSKFADFNAVQQTMQRDLSECAQGDVKVRLNPMAVYDSQKIDHLQGDCIDEQDIEITSYEFNANWLKDCVSDEIVEEKLVSHLLKSNCLITNQPDWGTLHIHYVGKKINQEKLLRYVVSFRQHNEFHEQCVERIFCDLMHYAKPEKLTVYARYTRRGGLDINPFRSNFENLPENLRLARQ”: the “soluble on expression in E. coli” value is given as “soluble”.

Turning to “MANLATVERYVSAAAQRGADMVVFPEATMQGFGTGRLDRVAERIDGPFATRICQLARELNIVIVVGMFSPADTHDGKQRINNVALIAHPDSVREYRKIHTYDAFGFKESDTVRPGNQLVTFPVGDVTCGIAVCYDVRFPQQFIDLARLGAEVIVLPASWADGEGKLEQWRTLTAARALDSTSYIVACDQAVAEDERAPGAPTGVGHSAVVTPDGRRIAEAGTGEELFMVNVNRDLVRRTREAIPVLADAGYNQNGE”, the “soluble on expression in E. coli” value is “not soluble”.

With “MGRMHNPGKGMAKSAIPYRRSVPSWQKMTAEEVQDQIVKMAKKGLRPSQIGVILRDSHGVGQVRRLAGNKIFRILKSKGMAPELPEDLYHLVKKAVAIRKHLERSRKDIDSKYRLILVESRIHRLARYYKTKRQLPPTWKYESGTAASLVS”, the “soluble on expression in E. coli” value is recorded as “soluble”.

Consider “MTNDVEMKSETEELPPFPTVHILQVVKDAQQQHGLRHGDYARYRKYCAAKLERMRKALKFTNSHNCQKKRKAKFVKKWLSVESVQNVQFLNFGIFESERRYAEAMIDKITLEDNPEKSRKKFSMINSLRKAVLHATNLEKIVQESERFDAPTKLEAQAYAAWMRGMCSFESRNWQKASESLKLAKTVYEKLAEATNNTTLSSIFKGRCREIQPQLRLCEFNIAESPGAVGTMTELMELRMQMGEGGDSSVDKLISEMRASATSAEVVTIEWGGAKSTVDDEKAKQVVQEWKQTEVELAQCQTPKEKMALFEKATADTRDAIDRISDIIRRKSSENADTTVLQSIKAYLEFLKMNGTASRYLAIIDNTKSEKKSKPQDLLRLYDSVIEIYKEVAEIPGADHDKNLIQAFEVKVEYYRAFRCFYMASSYSALHKYSEAAALFDRTVSRVQDAEGKLKKLKSSSFITNETQSSLNELRSEVESAKVTVRAARLASAAGDVKTDSELAKIIDKRPLLETVNEWRQWDVRNSLKDKKTIPVASLPPAFIPMPNKPIFFDLANFHLTMPNVDDRLEKLQKDRDATPKKAAKGSSAAAASSKTSNQEEEEQQGLTGMLSGWKKSFWGNK”, for which the “soluble on expression in E. coli” value is given as “not soluble”.

On to “MSLRIAVDAMGGDHAPKAVIDGVIKGIEAFDDLHITLVGDKTTIESHLTTTSDRITVLHADEVIEPTDEPVRAVRRKKNSSMVLMAQEVAENRADACISAGNTGALMTAGLFIVGRIKGIDRPALAPTLPTVSGDGFLLLDVGANVDAKPEHLVQYAIMGSVYSQQVRGVTSPRVGLLNVGTEDKKGNELTKQTFQILKETANINFIGNVEARDLLDDVADVVVTDGFTGNVTLKTLEGSALSIFKMMRDVMTSTLTSKLAAAVLKPKLKEMKMKMEYSNYGGASLFGLKAPVIKAHGSSDSNAVFRAIRQAREMVSQNVAALIQEEVKEEKTDEEGGSHHHHHH”, for which the “soluble on expression in E. coli” value is reported as “soluble”.

As to “MLIKGLSDTLLENPLWQKTYLRSFMQFYSTNSLSWGQLSYEEGEIRNLHYGLIHSFQTSEIDTDSLPRILPANVPKQYTLCQAGDVAFADASEDTDEIGKAVEFIRTHKASVICGLHTIHGRDIKCKTLLGFKRVAFNSHYFHDQIKRLAQGTKVFSITSSNLSSCYIYIPDIVMQKSIVVLFEAYEEQLITNKRLLEQYEKQKRYLLQQMFILEHHHHHH”, the “soluble on expression in E. coli” value is “not soluble”.

Regarding “MESKAKTTVTFHSGILTIGGTVIEVAYKDAHIFFDFGTEFRPELDLPDDHIETLINNRLVPELKDLYDPRLGYEYHGAEDKDYQHTAVFLSHAHLDHSRMINYLDPAVPLYTLKETKMILNSLNRKGDFLIPSPFEEKNFTREMIGLNKNDVIKVGEISVEIVPVDHDAYGASALLIRTPDHFITYTGDLRLHGHNREETLAFCEKAKHTELLMMEGVSISFPEREPDPAQIAVVSEEDLVQHLVRLELENPNRQITFNGYPANVERFAKIIEKSPRTVVLEANMAALLLEVFGIEVRYYYAESGKIPELNPALEIPYDTLLKDKTDYLWQVVNQFDNLQEGSLYIHSDAQPLGDFDPQYRVFLDLLAKKDITFVRLACSGHAIPEDLDKIIALIEPQVLVPIHTLKPEKLENPYGERILPERGEQIVL”, the “soluble on expression in E. coli” value is “soluble”.

As for “MSRNLHHTEEIYQSSYLNSSLIEFMPNTILPGKETVFMSSKMEQIIEEIEDYIDGCKPSPISRNKILVNREQLEELLSELRTKTPEEVKRYQKIISNKEAILADAQAKADQIIAQAQIQTNELVSEHQIMQQAYAQANEVVQIATKQAQEILDSATNEANNLRMSAMAYTDSQLKSIEDILTGSIETSKARYDSLISSLQQFEDVVAANRAELFPPEENGDEAAGAESSDNEATSDTSDDDIEITNISDSDEDAK”, the “soluble on expression in E. coli” value is listed as “not soluble”.

As for “MHCNDGGPATLGLFSDSDLQQPARVEVLGPQSRVLRGFALPWVEALLPQLDAVLAAAPFRQMQTPGGFTMSVGLSSCGQLGWTTDRSGYRYSPIDPQSQRPWPALPKVFQELAEAAAEAAGFPGFAPDSCLINCYRPGAKMSLHQDKNERDYSAPIVSLSLGLPAIFLFGGRQRSDKSQRVALLHGDVVVWGGVDRLRYHGVLALKDGHHPLLGQQRINLTLRRAGLEHHHHHH”, the “soluble on expression in E. coli” value is “not soluble”.

For “MAVGGGIGGLLLVGLFLLLGGNPAEIDQVLGGDQTQIESGESTGAGDFDHCQTGADANASDDCRLYYTSFSVNEMWQTLLPAQAGIEYTEPTLTLFKNSTQTGCGFASASTGPFYCPSDQDAYFDLTFFDQMRQFGAENAPLAQMYIVAHEYGHHVQNLEGTLGLSNYNDPGADSNAVKIELQADCYAGIWANHSSEGPDPLLQPITESELDSALLAASAVGDDNIQQRSGGDVNPESWTHGSSQQRKDAFLAGYNTGQMSACDFLGRGVYNDA”, the “soluble on expression in E. coli” value was “not soluble”.

For “MIKILAACGAGVNSSHQIKSALEEELSNRGYDVHCDAVMVKDVNEDLMKGYDIFTPIAATDLGFEPGIPVIEAGPILFRIPAMSVPVFDNIRLPAKQNMV”, the “soluble on expression in E. coli” value is reported as “not soluble”.

Take “MAHHHHHHMTSVEAENQPVEDPETFVVMEENGAPRDPQVAVSALDEAAEEGAVSGGEREPAAAGDDLSNPHVFKVAAREVDEGYMSVIRGLSAFGRADEEVCRNAVDICKDIIAMEQSLFSEVPSYVTNYASMQRAKTVVLNKAVRPHWTIPTPEGPPRTWEEQRAYVDPGVPLMLPYSAERFKKEHPERALVEGTYHNLFYGDGTQVVFTASADNKRKQIEEEKRKHPHPSYHGPYVFEPQQKKPMRVASDFVPSCAEPDRLRVDLRKKPVTKAKAEKSQKKKVTTK”: the “soluble on expression in E. coli” value is on record as “not soluble”.

As to “PHDDSYWDRVLTHGKNCIKYTPNNAASLHNAIRLLNESPWMKVTMGLEALNVAQLYSAERCYMPIAQYLCSEHAPTSHHGAKARNNVKGYDHV”, the “soluble on expression in E. coli” value is recorded as “not soluble”.

For the sequence “MDEKKLFENFQLTFGRMISPFEIEDIQKWIHEDNMPIEVVNLALREAVENNKISWKYINKILVDWYKSGDTTVEKVRDRLQRFDDSKKQRSVTTSNVPSWSNPDYKEPDLEEFALGSMDGIEDGSGDF”, the “soluble on expression in E. coli” value is “not soluble”.

With “MAANEGNQPIPPEEEKEISSLLESIKIGKTSLKYRCFYLYDDKMTDLTEEQKETLKKLKLYQKEYYDYESKFEYELFLLRQKYHDLYGPIYDKRREALVGNGEAKIGTPNLPEFWLRALRNNNTVSHVIEDHDEEILVYLNDIRCDYIKKNKEKKEGFILSFYFATNPFFSNSVLTKTYHMKCVDCDNEPVLLHTEATVIDWYDNKNILKKNVVKKQHNKNSREVKTVQQTVNRDSFFHFFTSHKVPNSNVIKQLSKHEVAQLEMIIEGDYEVALTIKERIIPYAVDYYLGIIIESESNSIVSDVDSSYSSSENNSNYNSYESNNSAYNDENSNVDTNEYDDNEEEEEGAKSNEDPLTS”, the “soluble on expression in E. coli” value is “soluble”.

Consider “MSLNDIIEQLQELSETVPVPLELPTFEQLVEVEEQILIGLPNDLKEFLMYGSDVIYGTLEPVTAADPSSHTYLPEVACYAWSIGLPREQIAICQIGDSFYCIDEESQVMFWKKGRFSDKVWESFWHWAEDVWLNREGHHHHHH”, for which the “soluble on expression in E. coli” value is recorded as “soluble”.

As to “MRSVTLPLLMFCLGLAACSGDGGRRPSTCEVISPPDVMVPTEQNRQRVEQQSSGDPTAGQKPVECP”, the “soluble on expression in E. coli” value is “not soluble”.

Turning to “HMNFKMEHQNKRSPLHAAAEAGHVDICHMLVQAGANIDTCSEDQRTPLMEAAENNHLEAVKYLIKAGALVDPKDAEGSTCLHLAAKKGHYEVVQYLLSNGQMDVNCQDDGGWTPMIWATEYKHVDLVKLLLSKGSDINIRDNEENICLHWAAFSGCVDIAEILLAAKCDLHAVNIHGDSPLHIAARENRYDCVVLFLSRDSDVTLKNKEGETPLQCASLNSQVWSALQMSKALQDSA”, the “soluble on expression in E. coli” value is on record as “soluble”.

With “LRGFIIGRFQPFHKGHLEVIKKIAEEVDEIIIGIGSAQKSHTLENPFTAGERILMITQSLKDYDLTYYPIPIKDIEFNSIWVSYVESLTPPFDIVYSGNPLVRVLFEERGYEVKRPEMFNRKEYSGTEIRRRMLNGEKWEHLVPKAVVDVIKEIKGVERLRKLAQTDK”, the “soluble on expression in E. coli” value was “soluble”.

For “MRGSHHHHHHTDPALRALGLKQVHHIAIIATDYAVSKAFYCDILGFTLQSEVYREARDSWKGDLALNGQYVIELFSFPFPPERPSRPEACGLRHLAFSVDDIDAAVAHLESHNVKCETIRVDPYTQKRFTFFNDPDGLPLELYEQGLCGR”, the “soluble on expression in E. coli” value is “soluble”.

On to “GMKLYKLLILDIDGTLRDEVYGIPESAKHAIRLCQKNHCSVVICTGRSMGTIQDDVLSLGVDGYIAGGGNYIQYHGELLYNQSFNQRLIKEVVCLLKKREVAFSIESQEKVFMNQKAKEIFETMNQLKGTNSCINKQHIQEKITYENNIEEYKSQDIHKICLWSNEKVFDEVKDILQDKMELAQRDISSQYYEIIQKDFHKGKAIKRLQERLGVTQKETICFGDGQNDIVMFQASDVTIAMKNSHQQLKDIATSICEDIFDNGIYKELKRRNII”, for which the “soluble on expression in E. coli” value is listed as “soluble”.

For the sequence “MGSDKIHHHHHHMRTICVFNNKGGVGKTTLLCNLAAYFSIKRGKKVLVVDADPQCNATAYMIKEKVLDKLYASSSSDSATINSLIASLKKSKGYGIPPVLRSDGFNVDIVPGDPKFSLAEDFLAKDWLDAIAGDERGLRTTFFFRNLISWARSDGYDLVFFDMGPSLGAINRTVLLSSDHFILPMSSDIFSLRGLQNIEVALKNWTKGIERGLVSFKEDQGTSFKVESGDALSELGVSFLGYVTQQYTAKTVDGKKQPVSAYEKIIKKIDPLVSKHLILPLNKGQKLNYKLGEIPYFQSLVPMAQTATVPIFALKKADGVVGAHFDKVRQFDSVISGIVDKIEANMNSKGN”, the “soluble on expression in E. coli” value is on record as “not soluble”.

“PTPKTELVQKFRVQYLGMLPVDRPVGMDTLNSAIENLMTSSSKEDWPSVNMNVADATVTVISEKNEEEVLVECRVRFLSFMGVGKDVHTFAFIMDTGNQRFECHVFWCEPNAANVSEAVQAACSGPSSGIEGRGSSGSSGSSGSSGDAAVTPEERHLSKMQQNGYENPTYKFFEQMQN”: the “soluble on expression in E. coli” value is “soluble”.

With “MHFELNQATHCKNHVVIHNELSPGIILNIACRKGSIDDKPTRFHKLNFKDPSYVIEFEDNYPNDETWYCLLSHGTRPKYWYDIQVYRQGIQPKCNQLRLWIARMDGIWFTRRYESPPGHVLDWKI”, the “soluble on expression in E. coli” value was “not soluble”.
